Assay results from patent US20160032278A1.

Tests used:
papain [1] = biological target: papain (UniProt P00784); assay: SPR, cystatin immobilised on NTA chip via His tag, papain in solution
papain [2] = biological target: papain (UniProt P00784); assay: SPR; text value differs from Table 3 (4.7 × 10^-9)
papain [3] = biological target: papain (UniProt P00784); assay: cell-based or functional assay

papain, sequence (P00784 134-345 limits assumed): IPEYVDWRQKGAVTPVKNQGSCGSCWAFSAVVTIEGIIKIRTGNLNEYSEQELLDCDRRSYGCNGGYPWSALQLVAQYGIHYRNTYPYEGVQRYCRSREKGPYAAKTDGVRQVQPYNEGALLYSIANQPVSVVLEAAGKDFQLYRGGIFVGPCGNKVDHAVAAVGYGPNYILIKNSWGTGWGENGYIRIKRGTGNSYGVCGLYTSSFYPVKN

Ka (papain [1]) [M⁻¹] | Kd (papain [1]) [nM] | koff (papain [1]) [s⁻¹] | kon (papain [1]) [M⁻¹ s⁻¹] | Kd (papain [2]) [nM] | IC50, papain inhibition (substrate pGlu-Phe-Leu-p-nitroanilide) (papain [3]) [M] | Substance
7.3e+07 | 14 | 0.0035 | 260000 | – | – | CUN (satsuma orange cystatin, Citrus unshiu)
5e+07 | 20 | 0.0052 | 260000 | – | – | CPA (papaya cystatin, Carcia papaya)
2.1e+08 | 4.7 | 0.0012 | 260000 | 47 | 1.8e-07 | OSA-IΔD86 (modified oryzacystatin I lacking residue Asp86) (from UniProt P09229 39-140)
